In patent US20220184120A1 one finds percent positive cells data, which are given here for one substance.

The target in this experiment is full-length MUC1 expressed on HCT-116 cells (cleavage resistant single cell clone) (Homo sapiens (Human)) (UniProt P15941). Nature of the experiment: flow cytometry, HCT-MUC1-41TR cells (FIG. 36D).

In the case of “VU4H5 commercially available mouse monoclonal anti-MUC1 tandem repeat antibody”, the percent positive cells was determined as 95%.
